# From the DeepSol protein solubility set
# Test: soluble on expression in E. coli; label from the status in PepcDB or PDB records
row,Sequence,soluble on expression in E. coli
1,MSADYSSEKFKATHLFDEILWHFRSNLSLKTNRRGLATAENSFSGKEAVDFLMIEMPRIIPNNVPERDKMQKFLEFMMDMNVISEAFPKKVKQRRPFSESRIYLFMKTLDELKHPKPRSRRSASFSGARKSAKVAQPASPAATMHRPPKARLPRRLSRSNGNIDKAGIDNSSGGVENHGFDDHKDDEIPKKQRTPKILNRSLESICTEEYTEKREVSEMKEKVYDWLPFFKSRRNHTKVNQPTRRSASLDRNHCVLEQEKAEAALRSQKVTTPPIREAPKDVVFMHPQGPLPAVPSRYQNHRTSIAGSNPALLSRGRMYESIMRRSSVVPVADSVQANNECSFWKTELLGRLEQIYDRTLPCEWASKVDGYDIQWNMIEIDHADGIVKSRCQGLQPDYPQTVIQFMDYLVRYPFVTHKKMDTGLEYNVNRIFITLVNRLEDLNAPLQFDECSLIVNLLCKIDSFAAMLDNGPARRWSKVMISSSASSIEEAGLMVDGFSRDLPACGIRASKYRRRALSPFDNRVNLEIQDEKSYEIREQWLIEAIQLVLLSLPTSRRRKLHKFVTFIQSIETNAVFDLADPSNGSSNNREAAIIGLWTGVCSKCRKQQGMLITAVLLANFQSLFAVPVEFIEQVKRLECEEKDRYSGPRYAKITRSRNDWQPPVPDKPQASPAVFKKPLREVACEKTKKGLFTRLLRK,not soluble
2,MSASKILSQKIKVALVQLSGSSPDKMANLQRAATFIERAMKEQPDTKLVVLPECFNSPYSTDQFRKYSEVINPKEPSTSVQFLSNLANKFKIILVGGTIPELDPKTDKIYNTSIIFNEDGKLIDKHRKVHLFDVDIPNGISFHESETLSPGEKSTTIDTKYGKFGVGICYDMRFPELAMLSARKGAFAMIYPSAFNTVTGPLHWHLLARSRAVDNQVYVMLCSPARNLQSSYHAYGHSIVVDPRGKIVAEAGEGEEIIYAELDPEVIESFRQAVPLTKQRRFDVYSDVNAH,soluble
3,MSASVSDPYEQMPAAPTDDDLEDKPEADKKALLNQVFKSLKRAQDLFYHDYAQPPPMPEENDSLIRSMKRKHEYGNVIKKVEEMKVRRENEMLALPTSQPMHGTGSVIASAGTPLAITDGSGKLVNQQQGSAKSGTLLPLVPLGNSSKGEDNTTRSLLPSKAPMMMKPKWHAPWKLYRVASGHTGWVRAVDVEPGNQWFASGGADRIIKIWDLASGQLKLSLTGHISSVRAVKVSPRHPFLFSGGEDKQVKCWDLEYNKVIRHYHGHLSAVQALSVHPSLDVLVTCARDSTARVWDMRTKAQVHCFAGHTNTVADVVCQSVDPQVITASHDATVRLWDLAAGRSMCTLTHHKKSVRALTIHPRLNMFASASPDNIKQWKLPKGEFMQNLSGHNAIINTLSSNDDGVVVSGADNGSLCFWDWRSGFCFQKIQTKPQPGSIESEAGIYASCFDKTGLRLITAEADKTIKMYKEDDEATEESHPIVWRPEIVKKKAY,not soluble
4,MSATPPTTPAPTAAASAGKGLHSRAYNGLIKACDKYVPPKMRPLWMHPAGPKTIFFWAPIVKWSLVIAGLSDLTRPADKISPNGCLALGATNLIWTRYSLVIIPKNYSLFAVNLFVSLTQLFQLGRYYNYQWEQSRLEKNGEQCPAIEASLLEHHHHHH,not soluble
5,MSATSATNFAVQTHPVKAPDEEYFFEGAEKLLELWFCSSTQNETRSLRIIPREEIDAMLDIARCKILHSKHNESIDSYVLSESSLFISDNRVILKTCGTTRLLAALPVIMQLAGAYAGLDQVQSVYYSRKNFLRPDLQPSLHKNFDAEVEYLDSFFVDGHAYCLGSLKQDRWYLYTFHREVEFPAHKQPDHTLEILMSDLDEEVLHKFTKDYAVDGNDCFMRAGIDKIIPAGADVHDELFDPCGYSMNAYMNDTDQYATIHVTPEKAFSFASFETNQDLVCLYSQTRKVLQCFRPNKILMTVFANDISEKGKDAQQQLWDRELPGYRRTNVQFVRLETETLVYAHFVRKASTGQDSSSSDEDDGERSD,not soluble
6,MSAVFGAKYTLRFGHVLAPGEPYHQAFLKWAKAVEEKTNGDVRIEVFPSSQLGVEEDIIEQIRMGAPVGWNTDSARLGMYVKDIGVMNLAYFIDFMGAKTPEEAIEVLKKIKQSPTMQKWLKELEQRFGIKVLSFYWVQGYRHFVTNKPIRKPEDLNGLRIRTPGAPAWQESIRSLGAIPVAVNFGEIYTAVQTRAVDGAELTYANVYNGGLYEVLKYMSETGHFLLINFEIVSADWFNSLPKEYQKIIEEEMDKAGIEVSLKIMKELEEEYKQKCIEKGMAVIPASEIDKEAFMEKAKQAYKNLGLENALNQLIKEVKGEHHHHHH,soluble
7,MSAVNGLVPSTIFDRINSDMDVSEEMEEIREVLYEMIKTNFPMGVAATHLSEKYHEEFVSKGLGRELPEDWIQQVTAAEEFEAQTRGPITILFVRLSNTSSFKRPPINSVNVRVISTDREPTADELKKIKQRKENEPTEHAKTLSQQSVALKEGSTVSIVYADSPKRFFIRALADDDQYEKIGTTLAEIYAQETPPSALDSRVAIYEIVAGGAYALQDSNGTWFRVIAKQPPQSGQVMCHFVDVGVCEKFPVAAIRLLPPAVHPVMSIGSMAREVRMDVSEEESLRLNNKFVDLTFETKDDGIQVPINLTLSKFDSSDSESLPVVDLQSSDGLSITEFLKKPSGVVRLSTPTKTTSPITPASASTSSLTCLFDKPATIQPMTVAQMPMSAFPANAIFAAGPTDISLRQLSLDPMPDYMYAKLKDECALPDSQLESSPDFGGFYAAFIDDRWERVQCIRASKIDKQAYCVYLLDVGAFQYVRKEAMRRLNSTSPFKKMLMFKCKIGGIKPVAGGEVWSRESHEAVREFFEAACGEPVVVEPTQPGWSQWKQLNAPAVPTCEARLSCCGRDIGDWLIACGLALPINAPIPSPNSQSLLTFVPTPINIVGRNI,not soluble
8,MSAWTMSDPYPATEAHAQRAAKSSPKSLLDRLLSLVRREPEDREGIKAILEAAHERELLDAESYAMIKGALAVSERTVADIMVPRSRMDLLDISQPLPQLLATIIETAHSRFPVYEDDRDNIIGILLAKDLLRYMLEPALDIRSLVRPAVFIPEVKRLNVLLREFRASRNHLAIVIDEHGGISGLVTMEDVLEQIVGDIEDEFDEDEEESIFPEGENQWRLTASTDISHFNATFATDLPDDEYDSVGGWLGGQLGRIPRRGDSADHDGLHIEVVRADARRALWLRVRRNAGAQPPASAAE,not soluble
9,MSAYRHAVERIDSSDLACGVVLHSAPGYPAFPVRLATEIFQRALARLPGDGPVTLWDPCCGSGYLLTVLGLLHRRSLRQVIASDVDPAPLELAAKNLALLSPAGLTARELERREQSERFGKPSYLEAAQAARRLRERLTAEGGALPCAIRTADVFDPRALSAVLAGSAPDVVLTDLPYGERTHWEGQVPAQPVAGLLRSLASALPAHAVIAVTDRSRKIPVAPVKALERLKIGTRSAVLVRAADVLEAGP,soluble
10,MSDEISILIQDRKTGQRRNLTLNINITGNIEDLTKDVEKLTEIPSDELEVVFCGKKLSKSTIMRDLSLTPATQIMLLRPKFNSHNENGATTAKITTDSSILGSFYVWCKNCDDVKRGKLRVYCQKCSSTSVLVKSEPQNWSDVLKSKRIPAVCEECCTPGLFAEFKFKCLACNDPAAALTHVRGNWQMTECCVCDGKEKVIFDLGCNHITCQFCFRDYLLSQLERFGFVNQPPHGFTIFCPYPGCNRVVQDVHHFHIMGQTSYSEYQRKATERLIAVDDKGVTCPNVSCGQSFFWEPYDDDGRSQCPDCFFSFCRKCFERNCVCQSEDDLTRTTIDATTRRCPKCHVATERNGGCAHIHCTSCGMDWCFKCKTEWKEECQWDHWFN,not soluble
11,MSDIAPAAHSPYIPPTPEVGLPLWLLAELTYRCPLQCPYCSNPLDFARQGQELTTEQWFKVMQEAREMGAAQIGFSGGEPLVRQDLAELIAEARRLGFYTNLITSGIGLTEEKIIAFKKAGLDHIQISFQASDEQVNNMLAGSKKAFAQKLEMAKAVKKHGYPMVLNFVTHRHNIDRIDKIIELCLALEADFVELATCQFYGWAHLNRVGLLPTKDQLVRAEAVTNEYRDQLAAQDHPCKLIFVTPDYYEERPKACMNGWGNIFLTVTPDGTALPCHGARQMPIQFPNVREHSMQHIWYDSFGFNRFRGYDWMPEPCRSCDEKEKDFGGCRCQAFMLTGDAANADPVCSKSYHHGIITQARDESETATQTIEELAFRNDRNSRLIAKSS,not soluble
12,MSDISIEMIKRIVEEVVKKFLSKKILVVFTGGKVNFDISLDELKKIKENSMVEYTLVFSRAASQIFNKKMISDQLESVEVIEEGEAINARECVQKHNMVIFATLTRNTASKISHLILDTLPTQIAINCVLSDVPIVAVRDAADLNVETWRELGFSNFPPALKNSYDKIFKDIESYGIELCNSFELAKKVLGYLNSNSFSIAEKINKEEKSKRENSYYNGAKNIRLEKKIITREDIIGLKGKIDTIEIAKDSIITPLAMDFIRDNQLKVIKT,not soluble
13,MSDPKPTRSQGDLAEMLEMLLDKGVVINADIAVSVGDTELLGIQLRAAVASFETAAQYGLEFPTGTDMKRVETAAGVSSDASDANSETQPETEPARETTDEHSAVSSPSSREE,not soluble
14,MSDVRPPLPPFTAETAAQKVRAAEDGWNSRDPQRVSLAYSPDSVWRNRSTFVRGRERIVEFLSGKWQREQEYRLIKELWAFTGNRIAVRFAYEWHDDSGNWFRSYGNENWAFDEQGLMYERHASINDLPIREDQRLFRWLLGRRPDNHPSLGELGLLEHHHHHH,soluble
15,MSDYLSVSTLTKYLKLKFDKDPYLERVYLTGQVSNFRRRPNHQYFSLKDDKSVIQATMWSGHFKKLGFELEEGMKVNVVGRVQLYEPSGSYSIIVEKAEPDGIGALAIQFEQLKKKLSQAGYFDDRHKQLIPQFVRKIGVVTSPSGAVIRDIITTVSRRFPGVEILLFPTKVQGEGAAQEIAQTIALANEKKDLDLLIVGRGGGSIEDLWAFNEECVVEAIFESRLPVISSVGHETDTTLADFVADRRAATPTAAAELATPVTKIDILSWITERENRMYQSSLRLIRTKEERLQKSKQSVIFRQPERLYDGFLQKLDNLNQQLTYSMRDKLQTVRQKQGLLHQKLQGIDLKQRIHIYQERVVQSRRLLSSTMTSQYDSKLARFEKAQDALISLDSSRIVARGYAIIEKNHTLVSTTNGINEGDHLQVKMQDGLLEVEVKDVRQENI,not soluble
16,MSEAGSTVPFDFSSYGGEIDDLATRGLADAAGAEGIRTAMARVTGRAEEVQASRLSANEQNLIACGPGCADCCRVNVTVLLPEAIAIAAYLEEIGKGDETNAITMRVADTAARVRWMEDDERIRAGVACPFLDGRGWCAIYPVRPLTCRALSSTDPEQCRRALAAHCSDEEETIVVNIFQKFLMEGTFQSLARAMERAGLDTTGRELCRSVTRCLLDPRLADDFLAGKRIKFPESLEHHHHHH,soluble
17,MSEEDAEKLFLQEKPTRALLFIGSTGKTYASVISKEIDSTFAHTTRILSKMEQSGLIRFTFEGRIKFVELTKYGEEVEAALKDFRNIISEESPLRKEYLTAEEAGKVDKVRESEGKEYREHEEWEEENESEKDLDPLSAEILEKVRNLRNKIEGIYREAAETGQSKEMLSRKLGPNSRDIKKLYNQIENAETPVDETVVLALEETEGLLESYLKGSKPENV,not soluble
18,MSEEIKKIEEVAEQDKAPKVPTTEPPVDVPAPVTEEAPKVEEAVAEIAAPAAAEGETATAAAAAPEEKKKSGGVARRFTFNKRWGKHRDAEASTPKEPEAPKDPKEDVLGWIAQQIPQAVHKANYQVIDWVQKTAIPEEGERKTIPGKDQATTRNQFIGFFKDGDVLAKLANALEPGAVEVAAAEENADAAAQKEVQKKNIDAFGAWAQKTLGTEAAPVTNEDLLEKGKAGYTAVFQTLWQLGVQAKEKFDKEGFNVDTIVQLANSVVKSGLLTTILGFFRRNRQAAAAVEEPKDETAAAEGAGEAKEEGATGEVADTADEPVAVKQETSAPAAVAAN,not soluble
